The source of these data is patent US20150266962A1 (Pfizer, published 2015).

The target in experiment [1] is T1, recombinant human IL-13 receptor alpha 2 (hIL-13-Rα2) (human, UniProt Q14627 27-343).
T1 construct: Recombinant soluble antigen coated on ELISA plates or used in Biacore; also called rec hIL-13Rα2; rhIL-13Rα2
T1 sequence (looked up): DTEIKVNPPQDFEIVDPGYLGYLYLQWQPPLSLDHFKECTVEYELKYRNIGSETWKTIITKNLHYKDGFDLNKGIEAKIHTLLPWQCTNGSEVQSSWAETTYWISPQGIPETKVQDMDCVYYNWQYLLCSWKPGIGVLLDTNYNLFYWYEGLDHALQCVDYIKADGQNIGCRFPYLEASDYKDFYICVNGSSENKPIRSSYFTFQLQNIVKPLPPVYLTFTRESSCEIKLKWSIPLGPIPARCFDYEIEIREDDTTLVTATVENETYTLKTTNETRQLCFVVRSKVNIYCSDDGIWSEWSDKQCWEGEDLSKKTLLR
The experiment can be described thus: SPR Biacore T100, pH 6.0. As for the experimental part:
(§1) To assess the binding kinetics of the ch07 and ch08 antibodies, SPR (Surface Plasmon Resonance) experiments were conducted on a Biacore® T100 or T200 instrument using a Biacore® human Fab Capture Kit (GE Healthcare). All data was analyzed using the Biacore® T100 evaluation software version 2.0 with a 1:1 Langmuir binding model.
A general note: SPR reads the build-up and loss of mass on a sensor chip optically.

Experiment [2] has as its target T1, recombinant human IL-13 receptor alpha …. Nature of the experiment: SPR Biacore T100, pH 7.4. On the procedure:
as §1

Experiment [3] has the same target. The experiment can be described thus: direct ELISA on coated recombinant hIL-13-Rα2. As for the experimental part: Humanized hu08 binding to recombinant hIL-13-Rα2 was evaluated by a standard direct ELISA. Recombinant hIL-13-Rα2 was coated onto a 96-well plate. Serially diluted chimeric antibodies or humanized antibodies in combinations of heavy and light chains of versions 1.0 and 1.1 e.g. hu08 v1.0 HC/1.0 LC, hu08 v1.0 HC/v1.1 LC, hu08 v1.1 HC/v1.0 LC, and hu08 v1.1 HC/v1.1 LC, were added to the plate and incubated at room temperature for 1-2 hours. The binding was detected by HRP conjugated goat anti-human Ig Kappa.
For orientation: ELISA stands for enzyme-linked immunosorbent assay.

Experiment [4] has the same target. Nature of the experiment: standard ELISA on hIL-13-Rα2 (given as ED50).
Experiment [5] shares this target. Nature of the experiment: competition ELISA on hIL-13-Rα2, competitor biotinylated ch08. On the procedure: The binding properties of the cysteine mutants to hIL-13-Rα2 were evaluated by a standard ELISA and a competition ELISA. […] This conclusion was confirmed by a competition ELISA with biotinylated ch08.
Experiment [6] addresses T2, cynomolgus monkey IL-13-Rα2 ECD/TM domain with C-terminal Flag tag, on transfected HEK293 cells (cynomolgus monkey, UniProt Q14627 27-363 (human entry)).
T2 construct: also called cyno-IL-13-Rα2; cyno IL-13Rα2; not shown: Flag tag at the C-terminal end
T2 chain: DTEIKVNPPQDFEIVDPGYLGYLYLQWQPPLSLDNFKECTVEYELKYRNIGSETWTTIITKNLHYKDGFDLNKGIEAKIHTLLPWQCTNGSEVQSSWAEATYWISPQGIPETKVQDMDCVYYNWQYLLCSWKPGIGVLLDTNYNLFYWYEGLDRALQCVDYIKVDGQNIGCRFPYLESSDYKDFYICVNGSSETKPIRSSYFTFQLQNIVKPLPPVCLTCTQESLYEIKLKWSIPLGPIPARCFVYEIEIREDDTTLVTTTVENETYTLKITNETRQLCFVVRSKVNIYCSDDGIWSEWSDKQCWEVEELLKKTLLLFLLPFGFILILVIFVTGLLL
The experiment can be described thus: FACS on HEK293 cells transfected with cyno-IL-13-Rα2 (given as ED50). As for the experimental part:
The ECD/TM domain of cyno IL-13-Rα2 fused with Flag tag at the C-terminal end was cloned into the pSMED2 expression vector. HEK293 suspension cells were transiently transfected with cyno-IL-13-Rα2 containing plasmid and pSMED2 vector (as a mock transfection). The cells were harvested 72 hours later and subjected to FACS analysis. 4 antibodies including ch07, ch08, hu08v1.0/1.0 and hu08v1.1/1.1 were tested. The binding on the cell surface cyno-IL-13-Rα2 was detected with R-Phycoerythrin-labeled goat anti-human or mouse IgG.

In experiment [7] the target is T1, recombinant human IL-13 receptor alpha …. Nature of the experiment: SPR Biacore T100, pH 7.4 (column head prints nM; kd/ka gives M); pH 7.4. As for the experimental part: as §1
Experiment [8] shares this target. The experiment can be described thus: competition ELISA on coated recombinant hIL-13-Rα2, competitor biotin-ch08. On the procedure: A competition ELISA was performed to assess whether hu08 1.0 and hu08 v1.1 compete with ch08 for IL-13-Rα2 binding. Recombinant hIL-13-Rα2 was coated onto 96-well plates at 50 ul of […] in PBS overnight at 4° C. Plates were then blocked and washed following standard ELISA protocol. A 3-fold serially diluted ch08, hu08 1.0 and hu08 v1.1, and negative control ch07 (2× final concentration) were mixed with biotinylated ch08 (2×EC₅₀). 50 μl of the antibody and biotin-ch08 mixture were added to the plate and incubated for 1 hour at room temperature. The amount of biotin-ch08 bound was detected by HRP conjugated streptavidin.

Experiment [9] has the same target. The experiment can be described thus: direct ELISA on rhIL-13Rα2 (given as ED50).
For experiment [10] the target is unchanged. Nature of the experiment: competition ELISA on plate (recombinant IL-13-Rα2), competitor biotinylated ch07.
For experiment [11] the target is unchanged. Nature of the experiment: direct ELISA on rhIL-13Rα2, purified protein (given as ED50).
Experiment [12] has the same target. Nature of the experiment: competition ELISA on plate, competitor biotinylated ch07, purified protein.
A further experiment addresses T3, IL-13 (UniProt P35225 35-146, limits assumed).
T3 construct: also called IL-13 cytokine
Nature of the experiment: competition ELISA: IL-13 captured on an anti-Flag coated plate, constant amounts of IL-13 and biotinylated IL-13Rα2-Fc (the competitor), detected with streptavidin-HRP. As for the experimental part: In order to assess whether ch07 and ch08 can neutralize IL-13 function, a competition ELISA was performed. An anti-Flag Ab was coated onto 96-well plates and incubated overnight at 4° C. Plates were then blocked and washed following standard ELISA protocol. […] 100 ul of the complex was added to the ELISA plate and incubated for 1 hour at room temperature. The amount of biotin-IL-13-Rα2 bound was detected by HRP conjugated streptavidin at 1:5000 for 1 hour.

T3 sequence (P35225 35-146 limits assumed): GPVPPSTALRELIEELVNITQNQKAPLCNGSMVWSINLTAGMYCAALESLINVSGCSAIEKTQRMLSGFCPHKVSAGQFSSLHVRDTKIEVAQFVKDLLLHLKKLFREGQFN

B1: humanized antibody hu08 v1.0 HC/v1.0 LC (antibody, IgG1)
heavy: not shown
light: DIQMTQSPSSLSASVGDRVTITCKASQDVGTAVAWYQQKPGKAPKLLIYSASYRSTGVPSRFSGSGSGTDFTLTISSLQPEDFATYYCQHHYSAPWTFGGGTKVEIKRTVAAPSVFIFPPSDEQLKSGTASVVCLLNNFYPREAKVQWKVDNALQSGNSQESVTEQDSKDSTYSLSSTLTLSKADYEKHKVYACEVTHQGLSSPVTKSFNRGEC
notes: Humanized IgG1/kappa; also called hu08 v1.0/1.0; hu08v1.0/1.0
For B1, the results for the dissociation rate constant (koff) in [1] and in [2] were 0.000234 s⁻¹ and 0.000246 s⁻¹, respectively. Further, the kon (usually a measure of how fast the partners come together) came to 52900 M⁻¹ s⁻¹ in [1] and 97500 M⁻¹ s⁻¹ in experiment [2]. Further, the concentration giving a half-maximal response (EC50) (in general, the concentration at which the effect is half-maximal) in experiment [3] stood at 0.175 nM; in experiment [4] it was 0.11 nM; in experiment [6], 1.96 nM. Besides, the values for the IC50 in [5] and in experiment [8] were 2.01 nM and 2.12 nM, respectively. In [7], the Kd (commonly the concentration at which binding is half-saturated) is 2.52 nM.

B2: hu07 heavy chain v1.5 / light chain v1.0 (antibody, IgG1, V domains shown)
VH: EVQLVESGGGLVQPGGSLRLSCAASGFSLTKYGVHWVRQAPGKGLEWVGVKWAGGSTDYNSALMSRFTISKDNAKNSLYLQMNSLRAEDTAVYYCARDHRDAMDYWGQGTLVTVSS
VL: DIQMTQSPSSLSASVGDRVTITCTASLSVSSTYLHWYQQKPGKAPKLLIYSTSNLASGVPSRFSGSGSGTDFTLTISSLQPEDFATYYCHQYHRSPLTFGGGTKVEIK
notes: hIgG1 constant region and hIg Kappa constant region; also called hu07v1.5/v1.0
In the case of B2, in experiment [9], the EC50 was 0.754 nM. Moreover, the IC50 (commonly the concentration that inhibits the measured activity by half) in [10] came to 62 nM.

B3: humanized antibody hu07 heavy chain v1.5 / light chain v1.7 (antibody, IgG1, V domains shown)
VH: EVQLVESGGGLVQPGGSLRLSCAASGFSLTKYGVHWVRQAPGKGLEWVGVKWAGGSTDYNSALMSRFTISKDNAKNSLYLQMNSLRAEDTAVYYCARDHRDAMDYWGQGTLVTVSS
VL: DIQMTQSPSSLSASVGDRVTITCTASLSVSSTYLHWYQQKPGSSPKLWIYSTSNLASGVPSRFSGSGSGTSYTLTISSLQPEDFATYYCHQYHRSPLTFGGGTKVEIK
notes: hIgG1/kappa; also called hu07Hv1.5/kv1.7
Regarding B3, the EC50 in [11] came out at 0.39 nM. The IC50 in [12] was 7.7 nM.

B4: naked IL-13Rα2 (positive control competitor) (receptor, not shown: a dimerising Fc or GST; large carriers; small tags and cut ends)
chain: DTEIKVNPPQDFEIVDPGYLGYLYLQWQPPLSLDHFKECTVEYELKYRNIGSETWKTIITKNLHYKDGFDLNKGIEAKIHTLLPWQCTNGSEVQSSWAETTYWISPQGIPETKVQDMDCVYYNWQYLLCSWKPGIGVLLDTNYNLFYWYEGLDHALQCVDYIKADGQNIGCRFPYLEASDYKDFYICVNGSSENKPIRSSYFTFQLQNIVKPLPPVYLTFTRESSCEIKLKWSIPLGPIPARCFDYEIEIREDDTTLVTATVENETYTLKTTNETRQLCFVVRSKVNIYCSDDGIWSEWSDKQCWEGEDLSKKTLLR
B4: the “IC50 (read off the curve)” value with IL-13 was around 0.1 nM.

B5: humanized antibody hu08 v1.1 HC/v1.1 LC (antibody, IgG1, V domains shown)
VH: EVQLVESGGGLVQPGGSLRLSCAASGFTFSRNGMSWVRQTPDKRLEWVATVSSGGSYIYYADSVKGRFTISRDNAKNSLYLQMSSLRAEDTAVYYCARQGTTALATRFFDVWGQGTLVTVSS
VL: DIQMTQSPSSLSASVGDRVTITCKASQDVGTAVAWYQQIPGKAPKLLIYSASYRSTGVPDRFSGSGSGTDFSFIISSLQPEDFATYYCQHHYSAPWTFGGGTKVEIK
notes: hIgG1 constant region and hIgKappa constant region; also called hu08 v1.1/1.1; hu08v1.1/1.1
Turning to B5, the EC50 in experiment [3] is 0.198 nM; in experiment [6] it was 2.14 nM. Moreover, the IC50 in experiment [8] turned out to be 3.16 nM.
